US20090124537A1 (THRASOS, published 2009)
Bridges are numbered along the chain shown (N, C = ends). Where no end group is shown, it is not given here.

B1: bone morphogenetic protein-7 (ligand, UniProt P18075 293-431, looked up)
chain: STGSKQRSQNRSKTPKNQEALRMANVAENSSSDQRQACKKHELYVSFRDLGWQDWIIAPEGYAAYYCEGECAFPLNSYMNATNHAIVQTLVHFINPETVPKPCCAPTQLNAISVLYFDDSSNVILKKYRNMVVRACGCH
modifications: radio-iodinated (125I, lactoperoxidase method) when used as tracer; glycoprotein
notes: also called BMP-7

Experiments:
[1] = molecular target: T1, BMP-7 receptor of ROS cell plasma membrane fraction (ROS cell type II BMP receptor) (rat); test: radioligand binding of 125I-BMP-7 to ROS cell receptor-enriched plasma membrane fraction
T1 construct: whole, on cells; Used as a plasma membrane fraction of ROS cells, not as a purified protein; also called BMP-7 receptor-enriched plasma membrane fraction of ROS cells; ROS cell receptor
Procedure: Receptors from ROS cells are obtained by a procedure previously described (Dattatreyamurty, B., et al., (1986) J. Biol. Chem. 261.). […] In a typical assay, fixed amounts of ¹²⁵I-labeled sol. […] The assay incubations were carried out in a reaction volume of 300 μl with shaking for 22 hrs. at 4° C. […] The supernatants were aspirated and pellets washed before counting in a gamma counter (Packard Instr. Downers Grove, Ill.).

[2] = molecular target: T1, BMP-7 receptor of ROS cell plasma …; test: radioligand receptor assay, displacement of 125I-BMP-7 from ROS cell plasma membranes
[3] = molecular target: B1; test: Scatchard analysis of BMP-7 binding to purified daf-4 ECD

Binder: B1
- Ka [1]: 4.38e+09 M⁻¹

B2: F2-3 (peptide)
peptide: CYFDDSSNVICKKYRS
modifications: disulfide 1-11
notes: also called Peptide F2-3; BMP test agent F2-3
- IC50 [2]: 10 µM

B3: extracellular domain (ECD) of the type II receptor daf-4, hexa-histidine tagged (receptor)
chain: WANTLVSKVAQSNGTGTIKVSAPAKPTLRRMDNEEDEVISIECVYYDEMECEKSGDCEITKKTCYSEAHLKAVGCLAVFGLPTQEINSTEPYLKVDKPQYKSLGCMPYQHADSMNCENESSCRQGRSFRGGIGMCCCSTNNCNMPDLIEMVNPSLKKDSDNSALLWASTPSNMDLESLDKSSSRASQPELAPEDPEDVEHHHHHH
modifications: heavily glycosylated
notes: Expressed in CHO cells; also called daf-4 ECD; ECD of daf-4 receptor
- Ka [3]: 2.96e+10 M⁻¹
